Experimental findings from the supplement of paper PMC7125110 are described below.

B1: glmS ribozyme (parent)
chain: AUAAAAGCGCCAGAACUACAGAAAUGUAGUUGACGAGGAGGAGGUUUAUCGAAUUUUCGGCGGAUGCCUCCAAA

Holding throughout (settings): with glucosamine-6-phosphate
Variants of B1 are the subject of series [1]. Briefly: kcat; higher = faster cleavage; RNA array. In short, it runs like this:
(§1)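 E. coli RNA polymerase transcribed barcoded ribozyme variants in situ on sequenced MiSeq chips, which were tracked via a hybridised Cy3 probe at 37 °C. Tiles were imaged over ~14 h after glucosamine-6-phosphate (40 μM to 10 mM) in HEPES/KCl/Mg(OAc)2 buffer was flowed in. Normalised per-tile medians were fit to one- or two-exponential decays for kobs, and kcat and KM came from weighted Michaelis–Menten fits.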

Series [2] covers variants of B1. Briefly: KM; higher = weaker cofactor use; RNA array. A digest of the protocol:
as §1

In series [3] the parent is B1. Briefly: self-cleavage kobs at 40 uM GlcN6P; higher = faster cleavage; RNA array. A digest of the protocol: as §1
In series [4] the parent is B1. The series is described as follows: self-cleavage kobs at 2500 uM GlcN6P; higher = faster cleavage; RNA array. A digest of the protocol: as §1
In series [5] the parent is B1. The series is described as follows: self-cleavage kobs at 10000 uM GlcN6P; higher = faster cleavage; RNA array. A digest of the protocol:
as §1

Variants of B1 are the subject of series [6]. The series is described as follows: self-cleavage kobs at 640 uM GlcN6P; higher = faster cleavage; RNA array. In short, it runs like this: as §1
In series [7] the parent is B1. Briefly: self-cleavage kobs at 160 uM GlcN6P; higher = faster cleavage; RNA array. A digest of the protocol:
as §1

± gives the standard error. For some assays here: This sample holds only a part of the variants without activity.

What is called kcat is the maximal rate divided by the concentration of active sites. Broadly, the KM is the substrate concentration at which the rate is half of its maximum. In the case of U55A A64U, the kcat in series [1] stood at 0.000202 ± 3.2e-05 s⁻¹. The KM in series [2] was 4540 ± 1600 µM. The “self-cleavage kobs at 40 uM GlcN6P” value in series [3] is less than 1e-05 s⁻¹. In addition, the “self-cleavage kobs at 2500 uM GlcN6P” value in series [4] amounted to 7.6e-05 ± 1.1e-05 s⁻¹. Further, in series [5], the “self-cleavage kobs at 10000 uM GlcN6P” value was 0.000138 ± 1.5e-05 s⁻¹.
With A6C U31G, the kcat in series [1] turned out to be 2.39e-05 ± 9.7e-07 s⁻¹. Also, the KM in series [2] turned out to be 3730 ± 510 µM. In series [5], the “self-cleavage kobs at 10000 uM GlcN6P” value came out at 1.74e-05 ± 5.6e-06 s⁻¹.
With A12U C50U C67G, the kcat in series [1] turned out to be 4.36e-05 ± 2.1e-05 s⁻¹. In series [6], the “self-cleavage kobs at 640 uM GlcN6P” value came out at 6.16e-05 ± 2.1e-05 s⁻¹.
With A42C U49G, the kcat in series [1] worked out at 1.03e-05 ± 3.2e-07 s⁻¹. The KM in series [2] was found to be 512 ± 51 µM.
In the case of G59A C68A, in series [1], the kcat was less than 1e-05 s⁻¹. In addition, the “self-cleavage kobs at 40 uM GlcN6P” value in series [3] was less than 1e-05 s⁻¹.
Take A39C U56G: in series [1], the kcat was 0.00414 ± 0.0013 s⁻¹. In addition, the KM in series [2] was determined as 4460 ± 1800 µM. The “self-cleavage kobs at 40 uM GlcN6P” value in series [3] worked out at 5.55e-05 ± 7.3e-06 s⁻¹. Also, the “self-cleavage kobs at 160 uM GlcN6P” value in series [7] is 0.000133 ± 1.4e-05 s⁻¹. The “self-cleavage kobs at 640 uM GlcN6P” value in series [6] is 0.000539 ± 6.5e-05 s⁻¹. For the same variant, the “self-cleavage kobs at 2500 uM GlcN6P” value in series [4] stood at 0.00125 ± 0.00015 s⁻¹. The “self-cleavage kobs at 10000 uM GlcN6P” value in series [5] was found to be 0.00322 ± 0.00035 s⁻¹.
Turning to C16U A33U, in series [1], the kcat turned out to be 0.000109 ± 1.2e-05 s⁻¹. In addition, the Michaelis constant (KM) in series [2] was determined as 2420 ± 740 µM. Also, the “self-cleavage kobs at 640 uM GlcN6P” value in series [6] was 3.18e-05 ± 8.4e-06 s⁻¹. Also, in series [4], the “self-cleavage kobs at 2500 uM GlcN6P” value was found to be 5.09e-05 ± 6.2e-06 s⁻¹. Moreover, the “self-cleavage kobs at 10000 uM GlcN6P” value in series [5] came out at 8.92e-05 ± 7.1e-06 s⁻¹.
G38C C67U C70G: the kcat in series [1] is 1.59e-05 ± 1.8e-06 s⁻¹.
As to A12U U47G U57C, in series [1], the kcat is 0.000776 ± 0.00016 s⁻¹. In addition, the KM in series [2] stood at 8650 ± 3200 µM. Also, the “self-cleavage kobs at 2500 uM GlcN6P” value in series [4] is 0.000172 ± 4.9e-05 s⁻¹. Further, in series [5], the “self-cleavage kobs at 10000 uM GlcN6P” value is 0.000417 ± 6.9e-05 s⁻¹.
As for C16U A36U, the kcat in series [1] is less than 1e-05 s⁻¹.
As for G7A A36U A39C C68A C71G, the kcat in series [1] was 1e-05 ± 4e-06 s⁻¹.
As for A64G U65G, the kcat in series [1] was found to be 0.00619 ± 0.0017 s⁻¹. Further, in series [2], the KM is 4490 ± 1700 µM. For the same variant, the “self-cleavage kobs at 40 uM GlcN6P” value in series [3] is 5.76e-05 ± 1e-05 s⁻¹. In addition, the “self-cleavage kobs at 160 uM GlcN6P” value in series [7] came to 0.000262 ± 6e-05 s⁻¹. Further, the “self-cleavage kobs at 640 uM GlcN6P” value in series [6] was determined as 0.000845 ± 0.00015 s⁻¹. Also, in series [4], the “self-cleavage kobs at 2500 uM GlcN6P” value was found to be 0.00174 ± 0.00029 s⁻¹. In addition, the “self-cleavage kobs at 10000 uM GlcN6P” value in series [5] was 0.00489 ± 0.00066 s⁻¹.
In the case of U56C U69C, the kcat in series [1] worked out at 3.67e-05 ± 7.4e-06 s⁻¹. Moreover, the “self-cleavage kobs at 40 uM GlcN6P” value in series [3] is less than 1e-05 s⁻¹. Moreover, the “self-cleavage kobs at 10000 uM GlcN6P” value in series [5] worked out at 3.13e-05 ± 1.3e-05 s⁻¹.
For U31A U56G, the kcat in series [1] was found to be 0.0146 ± 0.0054 s⁻¹. Moreover, the KM in series [2] was 2950 ± 1500 µM. The “self-cleavage kobs at 40 uM GlcN6P” value in series [3] is 0.000249 ± 5.8e-05 s⁻¹. In addition, in series [7], the “self-cleavage kobs at 160 uM GlcN6P” value came out at 0.000532 ± 0.00021 s⁻¹. The “self-cleavage kobs at 640 uM GlcN6P” value in series [6] came to 0.00335 ± 0.00098 s⁻¹. In addition, in series [4], the “self-cleavage kobs at 2500 uM GlcN6P” value came to 0.00579 ± 0.0015 s⁻¹. For the same variant, in series [5], the “self-cleavage kobs at 10000 uM GlcN6P” value worked out at 0.0132 ± 0.0039 s⁻¹.
In the case of C16A U46A, the kcat in series [1] stood at 7.31e-05 ± 2e-06 s⁻¹. Besides, in series [2], the Michaelis constant (KM) stood at 547 ± 78 µM. Also, the “self-cleavage kobs at 2500 uM GlcN6P” value in series [4] turned out to be 6.28e-05 ± 2e-05 s⁻¹. In series [5], the “self-cleavage kobs at 10000 uM GlcN6P” value was 6.82e-05 ± 1.6e-05 s⁻¹.
As for A39C G44A, the kcat in series [1] worked out at 3.56e-05 ± 1.2e-05 s⁻¹. Besides, the “self-cleavage kobs at 2500 uM GlcN6P” value in series [4] came out at 5.47e-05 ± 1.1e-05 s⁻¹. Besides, the “self-cleavage kobs at 10000 uM GlcN6P” value in series [5] was found to be 2.63e-05 ± 8.1e-06 s⁻¹.
Take C67G U69C: the kcat in series [1] turned out to be 0.00123 ± 0.00012 s⁻¹. In addition, the KM in series [2] was found to be 958 ± 170 µM. In addition, in series [3], the “self-cleavage kobs at 40 uM GlcN6P” value is 5.09e-05 ± 1.4e-05 s⁻¹. Also, in series [7], the “self-cleavage kobs at 160 uM GlcN6P” value was determined as 0.000179 ± 3.4e-05 s⁻¹. Also, the “self-cleavage kobs at 640 uM GlcN6P” value in series [6] is 0.000506 ± 9.2e-05 s⁻¹. For the same variant, the “self-cleavage kobs at 2500 uM GlcN6P” value in series [4] is 0.00077 ± 0.00014 s⁻¹. Also, the “self-cleavage kobs at 10000 uM GlcN6P” value in series [5] turned out to be 0.00127 ± 0.0002 s⁻¹.
Consider A48U U65A, for which the kcat in series [1] came out at 5.33e-05 ± 4.6e-06 s⁻¹. In addition, the “self-cleavage kobs at 160 uM GlcN6P” value in series [7] was less than 1e-05 s⁻¹.
Take G37U U65G: the kcat in series [1] was less than 1e-05 s⁻¹. Besides, in series [2], the KM turned out to be 1260 ± 500 µM. The “self-cleavage kobs at 40 uM GlcN6P” value in series [3] was less than 1e-05 s⁻¹. Moreover, in series [7], the “self-cleavage kobs at 160 uM GlcN6P” value was less than 1e-05 s⁻¹. Besides, the “self-cleavage kobs at 640 uM GlcN6P” value in series [6] is less than 1e-05 s⁻¹.
